In the experiment the target is purified soluble human HM1.24 antigen (HA-tagged, from soluble human HM1.24 antigen-expressing CHO cells) (human). The experiment can be described thus: sandwich ELISA with purified antigen at 5000-fold dilution (about 76.4 ng/mL) captured by anti-HA antibody; lowest measurable antibody concentration. (An ELISA detects its analyte on a solid surface through an enzyme-linked reagent.)

In turn, “reshaped human anti-HM1.24 antibody (humanized anti-HM1.24 antibody), light chain version a and heavy chain version s” gave a measurement limit of 500 pg/mL.

Values taken from WO2001077362A1.
